{"source": "patent US20140178854A1", "key": {"[1]": {"target": "gp70 env protein of amphotropic MLV (4070A envelope), on purified viral particles (amphotropic murine leukemia virus (4070A envelope))", "sequence (P21995 whole entry)": "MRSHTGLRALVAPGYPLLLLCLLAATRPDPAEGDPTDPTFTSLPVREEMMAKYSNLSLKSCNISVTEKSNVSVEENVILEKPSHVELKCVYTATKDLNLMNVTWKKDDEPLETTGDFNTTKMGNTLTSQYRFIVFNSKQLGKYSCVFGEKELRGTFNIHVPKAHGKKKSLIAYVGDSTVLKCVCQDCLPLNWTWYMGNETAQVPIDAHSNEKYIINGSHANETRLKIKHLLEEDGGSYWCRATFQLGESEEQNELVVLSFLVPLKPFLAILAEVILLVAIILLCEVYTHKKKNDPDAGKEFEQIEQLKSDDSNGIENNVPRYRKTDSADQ", "test": "ELISA on plate-bound MLV, dilution factor 781250, Exp074-DTV Plate 2"}, "[2]": {"target": "gp70 env protein of amphotropic MLV (4070A envelope), on purified viral particles (amphotropic murine leukemia virus (4070A envelope))", "test": "ELISA on plate-bound MLV, dilution factor 1250, Exp072-DTV Plate 2"}, "[3]": {"target": "gp70 env protein of amphotropic MLV (4070A envelope), on purified viral particles (amphotropic murine leukemia virus (4070A envelope))", "test": "ELISA on plate-bound MLV, dilution factor 50, Exp072-DTV Plate 2"}, "[4]": {"target": "gp70 env protein of amphotropic MLV (4070A envelope), on purified viral particles (amphotropic murine leukemia virus (4070A envelope))", "test": "ELISA on plate-bound MLV, dilution factor 250, Exp073-DTV Plate 1"}, "[5]": {"target": "gp70 env protein of amphotropic MLV (4070A envelope), on purified viral particles (amphotropic murine leukemia virus (4070A envelope))", "test": "human anti-MLV ELISA on plate-bound MLV, anti-rat Ig HRP alone or conjugate cocktail"}, "[6]": {"target": "gp70 env protein of amphotropic MLV (4070A envelope), on purified viral particles (amphotropic murine leukemia virus (4070A envelope))", "test": "ELISA on plate-bound MLV, dilution factor 50, Exp073-DTV Plate 1"}, "[7]": {"target": "gp70 env protein of amphotropic MLV (4070A envelope), on purified viral particles (amphotropic murine leukemia virus (4070A envelope))", "test": "ELISA on plate-bound MLV, dilution factor 250, Exp121-Ana Plate 1"}, "[8]": {"target": "gp70 env protein of amphotropic MLV (4070A envelope), on purified viral particles (amphotropic murine leukemia virus (4070A envelope))", "test": "ELISA on plate-bound MLV, dilution factor 781250, Exp073-DTV Plate 1"}, "[9]": {"target": "gp70 env protein of amphotropic MLV (4070A envelope), on purified viral particles (amphotropic murine leukemia virus (4070A envelope))", "test": "ELISA on plate-bound MLV, dilution factor 6250, Exp121-Ana Plate 2"}, "[10]": {"target": "gp70 env protein of amphotropic MLV (4070A envelope), on purified viral particles (amphotropic murine leukemia virus (4070A envelope))", "test": "ELISA on plate-bound MLV, dilution factor 6250, Exp122-Ana Plate 1"}, "[11]": {"target": "gp70 env protein of amphotropic MLV (4070A envelope), on purified viral particles (amphotropic murine leukemia virus (4070A envelope))", "test": "ELISA on plate-bound MLV, dilution factor 31250, Exp074-DTV Plate 2"}, "[12]": {"target": "gp70 env protein of amphotropic MLV (4070A envelope), on purified viral particles (amphotropic murine leukemia virus (4070A envelope))", "test": "ELISA on plate-bound MLV, dilution factor 156250, Exp073-DTV Plate 1"}, "[13]": {"target": "gp70 env protein of amphotropic MLV (4070A envelope), on purified viral particles (amphotropic murine leukemia virus (4070A envelope))", "test": "ELISA on plate-bound MLV, dilution factor 1250, Exp073-DTV Plate 2"}, "[14]": {"target": "gp70 env protein of amphotropic MLV (4070A envelope), on purified viral particles (amphotropic murine leukemia virus (4070A envelope))", "test": "ELISA on plate-bound MLV, dilution factor 250, Exp073-DTV Plate 2"}, "[15]": {"target": "gp70 env protein of amphotropic MLV (4070A envelope), on purified viral particles (amphotropic murine leukemia virus (4070A envelope))", "test": "ELISA on plate-bound MLV, dilution factor 31250, Exp125-Ana Plate 1"}, "[16]": {"target": "gp70 env protein of amphotropic MLV (4070A envelope), on purified viral particles (amphotropic murine leukemia virus (4070A envelope))", "test": "ELISA on plate-bound MLV, dilution factor 50, Exp122-Ana Plate 2"}, "[17]": {"target": "gp70 env protein of amphotropic MLV (4070A envelope), on purified viral particles (amphotropic murine leukemia virus (4070A envelope))", "test": "ELISA on plate-bound MLV, dilution factor 156250, Exp072-DTV Plate 1"}, "[18]": {"target": "gp70 env protein of amphotropic MLV (4070A envelope), on purified viral particles (amphotropic murine leukemia virus (4070A envelope))", "test": "ELISA on plate-bound MLV, dilution factor 31250, Exp122-Ana Plate 1"}, "[19]": {"target": "gp70 env protein of amphotropic MLV (4070A envelope), on purified viral particles (amphotropic murine leukemia virus (4070A envelope))", "test": "ELISA on plate-bound MLV, dilution factor 10, Exp074-DTV Plate 1"}, "[20]": {"target": "gp70 env protein of amphotropic MLV (4070A envelope), on purified viral particles (amphotropic murine leukemia virus (4070A envelope))", "test": "ELISA on plate-bound MLV, dilution factor 250, Exp122-Ana Plate 1"}, "[21]": {"target": "gp70 env protein of amphotropic MLV (4070A envelope), on purified viral particles (amphotropic murine leukemia virus (4070A envelope))", "test": "ELISA on plate-bound MLV, dilution factor 31250, Exp121-Ana Plate 1"}, "[22]": {"target": "gp70 env protein of amphotropic MLV (4070A envelope), on purified viral particles (amphotropic murine leukemia virus (4070A envelope))", "test": "ELISA on plate-bound MLV, dilution factor 50, Exp072-DTV Plate 1"}, "[23]": {"target": "gp70 env protein of amphotropic MLV (4070A envelope), on purified viral particles (amphotropic murine leukemia virus (4070A envelope))", "test": "ELISA on plate-bound MLV, dilution factor 10, Exp125-Ana Plate 1"}, "[24]": {"target": "gp70 env protein of amphotropic MLV (4070A envelope), on purified viral particles (amphotropic murine leukemia virus (4070A envelope))", "test": "ELISA on plate-bound MLV, dilution factor 781250, Exp125-Ana Plate 1"}, "[25]": {"target": "gp70 env protein of amphotropic MLV (4070A envelope), on purified viral particles (amphotropic murine leukemia virus (4070A envelope))", "test": "ELISA on plate-bound MLV, dilution factor 250, Exp121-Ana Plate 2"}, "[26]": {"target": "gp70 env protein of amphotropic MLV (4070A envelope), on purified viral particles (amphotropic murine leukemia virus (4070A envelope))", "test": "ELISA on plate-bound MLV, dilution factor 781250, Exp122-Ana Plate 2"}}}
{"substance": "83A25 monoclonal antibody (rat IgG2a, anti-gp70)", "values": [{"measurement": "Mean OD", "setting": "[1]", "value": 0.107, "unit": "OD"}, {"measurement": "Mean OD", "setting": "[2]", "value": 1.31, "unit": "OD"}, {"measurement": "Mean OD", "setting": "[3]", "value": 1.86, "unit": "OD"}, {"measurement": "Mean OD", "setting": "[4]", "value": 2.05, "unit": "OD"}, {"measurement": "titer (reciprocal dilution (1:x))", "setting": "[5]", "value": 312000}, {"measurement": "Mean OD", "setting": "[6]", "value": 2.27, "unit": "OD"}, {"measurement": "Mean OD", "setting": "[7]", "value": 2.37, "unit": "OD"}, {"measurement": "Mean OD", "setting": "[8]", "value": 0.107, "unit": "OD"}, {"measurement": "Mean OD", "setting": "[9]", "value": 0.758, "unit": "OD"}, {"measurement": "Mean OD", "setting": "[10]", "value": 0.64, "unit": "OD"}, {"measurement": "Mean OD", "setting": "[11]", "value": 0.25, "unit": "OD"}, {"measurement": "Mean OD", "setting": "[12]", "value": 0.14, "unit": "OD"}, {"measurement": "Mean OD", "setting": "[13]", "value": 1.61, "unit": "OD"}, {"measurement": "Mean OD", "setting": "[14]", "value": 2.12, "unit": "OD"}, {"measurement": "Mean OD", "setting": "[15]", "value": 0.235, "unit": "OD"}, {"measurement": "Mean OD", "setting": "[16]", "value": 1.89, "unit": "OD"}, {"measurement": "Mean OD", "setting": "[17]", "value": 0.116, "unit": "OD"}, {"measurement": "Mean OD", "setting": "[18]", "value": 0.289, "unit": "OD"}, {"measurement": "Mean OD", "setting": "[19]", "value": 2.25, "unit": "OD"}, {"measurement": "Mean OD", "setting": "[20]", "value": 1.86, "unit": "OD"}, {"measurement": "Mean OD", "setting": "[21]", "value": 0.322, "unit": "OD"}, {"measurement": "Mean OD", "setting": "[22]", "value": 1.75, "unit": "OD"}, {"measurement": "Mean OD", "setting": "[23]", "value": 2.17, "unit": "OD"}, {"measurement": "Mean OD", "setting": "[24]", "value": 0.105, "unit": "OD"}, {"measurement": "Mean OD", "setting": "[25]", "value": 2.25, "unit": "OD"}, {"measurement": "Mean OD", "setting": "[26]", "value": 0.141, "unit": "OD"}]}
